In assay [1] the target is von Willebrand factor (UniProt P04275). Nature of the assay: biotinylated recombinant factor VIII complexed to von Willebrand factor, captured on the anti-von Willebrand factor antibody MoAb4H1D7, no thrombin digestion, avidin-peroxidase detection. Also noted: unit not given here.
The target is the same in assay [2]. The description is as above, after thrombin digestion (activated factor VIII) in the absence of antibody. More on the design: unit not given here.

The source of these data is WO2001004269A1.

On to “human recombinant factor VIII (from UniProt P00451 20-2351)”, for which the OD450 (OD450 (so in the source)) came to 460 in the assay with von Willebrand factor [1] and 160 with von Willebrand factor [2].
